Results taken from US5948653.

Target: RecA (Escherichia coli?) (UniProt P0A7G6)
Assay: cell_activity

Sequence of RecA (Escherichia coli?) (P0A7G6 2-353): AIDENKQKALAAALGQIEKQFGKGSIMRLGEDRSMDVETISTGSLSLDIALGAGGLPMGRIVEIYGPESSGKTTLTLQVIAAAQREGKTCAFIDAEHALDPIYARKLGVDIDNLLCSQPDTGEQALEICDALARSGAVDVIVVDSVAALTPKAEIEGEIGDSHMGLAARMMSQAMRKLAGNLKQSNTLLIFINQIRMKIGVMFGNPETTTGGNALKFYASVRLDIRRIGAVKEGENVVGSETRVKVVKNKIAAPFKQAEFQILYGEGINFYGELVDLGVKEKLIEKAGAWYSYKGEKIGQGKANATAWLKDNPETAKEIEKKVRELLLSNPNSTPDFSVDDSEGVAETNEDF

Row | Substance | activity (homologous replacement after microinjection of RecA-coated DNA) [frequency] | activity (blue NIH3T3 cells (6/168), 0% without RecA, D-loop also seen on agarose gel) [%]
1 | CFTR 491-nt fragment (exon 10 and flanking introns) ; CFTR deltaF508 genomic locus | > 0.00025 | –
2 | lacZ 276-mer probe ; pMC1lacXpA | – | 3.6
